Results reported in PMC9169922.
Where two headings read alike, the source gives them in different places.

B1: T-C mismatch DNA template:RNA primer (crystal) (DNA:RNA)
DNA: ATAGTCGCTCCAGGC
RNA: GCCUGGAGCGC
modifications: RNA primer with 3'-terminal dideoxycytidine
B2: T-C mismatch template:primer (dsDNA)
DNA 1: AATACATAATCGCTCCAGGCAAT
DNA 2: GCCTGGAGCGC
modifications: primer 3'-terminal dideoxycytidine
B3: G-C template:primer (matched) (dsDNA)
DNA 1: AATACATAAGCGCTCCAGGCAAT
DNA 2: GCCTGGAGCGC
modifications: primer 3'-terminal dideoxycytidine
B4: C-C mismatch template:primer (dsDNA)
DNA 1: AATACATAACCGCTCCAGGCAAT
DNA 2: GCCTGGAGCGC
modifications: primer 3'-terminal dideoxycytidine
B5: A-C mismatch template:primer (dsDNA)
DNA 1: AATACATAAACGCTCCAGGCAAT
DNA 2: GCCTGGAGCGC
modifications: primer 3'-terminal dideoxycytidine

Assays:
[1] = biological target: T1, DNA polymerase alpha catalytic domain (PolαCD) (human, UniProt P09884 338-1250); assay: crystal structure
T1 sequence (P09884 338-1250): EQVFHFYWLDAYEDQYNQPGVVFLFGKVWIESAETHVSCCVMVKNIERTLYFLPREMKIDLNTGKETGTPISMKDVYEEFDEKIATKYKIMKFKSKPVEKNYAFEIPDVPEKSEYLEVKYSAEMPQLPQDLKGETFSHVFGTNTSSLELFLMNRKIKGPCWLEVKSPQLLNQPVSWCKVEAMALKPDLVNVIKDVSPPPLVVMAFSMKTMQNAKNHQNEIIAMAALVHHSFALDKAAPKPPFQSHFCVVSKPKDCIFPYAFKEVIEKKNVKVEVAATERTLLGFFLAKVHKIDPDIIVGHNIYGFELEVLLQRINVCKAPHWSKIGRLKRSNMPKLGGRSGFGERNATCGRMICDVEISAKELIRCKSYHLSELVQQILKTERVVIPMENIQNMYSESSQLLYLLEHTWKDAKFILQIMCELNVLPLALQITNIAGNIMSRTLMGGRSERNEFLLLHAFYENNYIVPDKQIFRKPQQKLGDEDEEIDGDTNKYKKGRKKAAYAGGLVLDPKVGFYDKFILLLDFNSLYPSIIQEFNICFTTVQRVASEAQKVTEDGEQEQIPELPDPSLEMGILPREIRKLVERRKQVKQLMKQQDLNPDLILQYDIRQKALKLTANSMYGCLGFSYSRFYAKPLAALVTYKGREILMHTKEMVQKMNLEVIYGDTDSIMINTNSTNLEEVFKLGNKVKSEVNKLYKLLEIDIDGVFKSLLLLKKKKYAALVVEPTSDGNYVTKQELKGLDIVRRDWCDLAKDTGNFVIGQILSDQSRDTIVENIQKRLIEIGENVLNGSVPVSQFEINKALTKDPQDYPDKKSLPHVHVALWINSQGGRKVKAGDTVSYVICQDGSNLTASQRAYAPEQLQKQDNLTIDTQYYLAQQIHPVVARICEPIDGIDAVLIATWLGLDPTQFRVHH

[2] = biological target: T1, DNA polymerase alpha catalytic domain …; assay: BLI
[3] = biological target: T1, DNA polymerase alpha catalytic domain …; assay: BLI; remark: listed apart in the source
[4] = biological target: T1, DNA polymerase alpha catalytic domain …; assay: BLI; remark: listed apart in the source
[5] = biological target: T1, DNA polymerase alpha catalytic domain …; assay: BLI; remark: listed apart in the source
[6] = biological target: T1, DNA polymerase alpha catalytic domain …; assay: BLI; remark: listed apart in the source

| Binder | binding result [1] | Kd [2] [nM] | Kd [3] [nM] | Kd [4] [nM] | Kd [5] [nM] | Kd [6] [nM] |
| --- | --- | --- | --- | --- | --- | --- |
| B1 | binds |  |  |  |  |  |
| B2 |  | 14.2 ± 0.13 | 462 ± 43 |  |  |  |
| B3 |  | 40.8 ± 1.6 | 1400 ± 130 | 1200 | 30.2 ± 1.3 | 168 ± 17 |
| B4 |  | 11.7 ± 0.42 | 646 ± 11 |  |  |  |
| B5 |  | 12.6 ± 1.3 | 987 ± 18 |  |  |  |
